Measurements from IntAct's records for PubMed 21596426.

Experiments:
h4_human H4C16 = h4_human H4C16 (UniProt P62805)
h32_human H3C13 = h32_human H3C13 (UniProt Q71DI3)

Row | effect of a mutation on the interaction (h4_human H4C16) | effect of a mutation on the interaction (h32_human H3C13) | Substance
1 | disrupting interaction | – | Nucleosome-remodeling factor subunit BPTF (Homo sapiens) (from UniProt Q12830-4) F2870A
2 | – | disrupting interaction | Nucleosome-remodeling factor subunit BPTF (Homo sapiens) (from UniProt Q12830-4) W2748E
